Reference: patent US10058586B2, “Use of human small leucine zipper protein in adipocyte differentiation procedure” (Korea University Research and Business Foundation, priority 2013, dated 2018)

Key:
HDAC3 = target: T1, HDAC3 (Mus musculus, UniProt O88895); assay: Fluorescence microscopy, subcellular localization of sLZIP and HDAC3 in C3H10T1/2 cells; assay type: cell-based; conditions: GFP-sLZIP, anti-HDAC3
T1 construct: endogenous in cells; host or cells: C3H10T1/2 cells expressing GFP-sLZIP
T1 sequence (O88895 1-428): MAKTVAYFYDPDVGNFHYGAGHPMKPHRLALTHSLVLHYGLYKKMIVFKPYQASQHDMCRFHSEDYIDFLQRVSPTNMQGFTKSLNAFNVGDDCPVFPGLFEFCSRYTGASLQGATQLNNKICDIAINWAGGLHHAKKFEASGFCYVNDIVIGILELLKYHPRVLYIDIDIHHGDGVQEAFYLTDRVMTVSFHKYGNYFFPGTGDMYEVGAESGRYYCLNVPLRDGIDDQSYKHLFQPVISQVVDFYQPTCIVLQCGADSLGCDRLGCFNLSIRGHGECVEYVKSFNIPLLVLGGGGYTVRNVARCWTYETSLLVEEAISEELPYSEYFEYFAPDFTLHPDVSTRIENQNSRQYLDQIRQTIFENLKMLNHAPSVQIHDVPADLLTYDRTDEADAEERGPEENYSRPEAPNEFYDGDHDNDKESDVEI
Method: C3H10T1/2 cells were transiently ci-transfected with Flag-sLZIP, GFP-PPARγ2 or GFP-sLZIP, and HDAC3 was grown on cover slip. After 24 hours, the cells were fixed with 4% paraformaldehyde for 10 minutes and permeabilized 0.2% Triton-X 100 for 5 minutes. The cells were incubated with 1% BSA for one hour, and then incubated with anti-Flag and anti-HDAC3 antibodies overnight at 4° C. The cells were washed with PBS, and then were incubated with Texas Red-labeled antibodies for 2 hours. A cover slide was washed with PBS, and mounted on and examined using a LSM 510 META confocal microscopy (Carl Zeiss, Jena, Germany).
For this purpose, 293T cells were transiently transfected with PPARγ2 (0.5 μg), (3-galactosidase (0.1 μg), FABP4-Luc reporter genes (0.2 μg) and sLZIP (0.1 μg). After the transfection, the cells were stimulated with or without 10 nM of RZD and 10 nM of TSA (FIG. 4A). A promoter activity was measured according to luciferase analysis. In the 293T cells, FABP4-Luc reporter genes, sLZIP, PPAR, β-galactosidase, and 100 nM of si-RNAs and HDAC1, 2, 3 and 8 for a control group were expressed. After the transfection, the cells were stimulated with or without 10 nM of RZD, and a promoter activity was measured (FIG. 4B). […] A protein complex was analyzed in SDS-PAGE, and anti-GST and anti-Flag antibodies were used for immunoblotting (FIG. 4E). *, P<0.05; **, P<0.01

NCoR1 = assay: Immunoprecipitation with anti-NCoR1 antibodies in 293T cells expressing Flag-sLZIP; assay type: binding; conditions: 10 nM RZD for 24 hours
Method: 293T cells were obtained and washed with cold PBS. The cells were re-suspended in an IP lysis buffer [25 mM of Tris-HCl (pH 7.4), 150 mM of NaCl, 1 mM of EDTA, 1% NP-40 and 5% glycerol, and a protease inhibitor]. A suspension was centrifuged at 16,000×g for 20 minutes at 4° C. Supernatants were collected and incubated with 0.5 μg of appropriate antibodies and 25 μl of protein A/G-agarose or a GST Sepharose 4B bead for 24 hours at 4° C. A protein complex was centrifuged at 1,000×g with a cold IP lysis buffer for 1 minute and washed five times. The final pellet was re-suspended in 50 μl of an SDS-sample buffer containing 5% β-mercaptoethanol and heated for 10 minutes at 100° C. A protein sample was isolated in SDS-PAGE (8 to 10%) and transferred to nitrocellulose membranes. Co-precipitated proteins were detected according to western blotting using specific antibodies.
For this purpose, 293T cells were transfected with GST-PPARγ2 and Flag-sLZIP and were treated or not treated with 10 nM of RZD for 24 hours. […] A protein complex was analyzed in SDS-PAGE, and immunoblotted with anti-GST and anti-Flag antibodies. […] The cell lysates were GST pull-down analyzed (FIG. 5C). […] The cell lysates were GST pull-down analyzed (FIG. 5D). […] A protein complex was analyzed in SDS-PAGE, and then immunoblotted with anti-NCoR1 and anti-Flag antibodies (FIG. 5E). […]

B1: sLZIP: human small leucine-zipper protein, isoform of LZIP, 354 amino acids, no transmembrane domain; GenBank FJ263669, SEQ ID NO: 1 (protein, listed as Homo sapiens)
chain: MELELDAGDQDLLAFLLEESGDLGTAPDEAVRAPLDWALPLSEVPSDWEVDDLLCSLLSPPASLNILSSSNPCLVHHDHTYSLPRETVSMDLESESCRKEGTQMTPQHMEELAEQEIARLVLTDEEKSLLEKEGLILPETLPLTKTEEQILKRVRRKIRNKRSAQESRRKKKVYVGGLESRVLKYTAQNMELQNKVQLLEEQNLSLLDQLRKLQAMVIEISNKTSSSSMYSSDTRGSLPAEHGVLSRQLRALPSEDPYQLELPALQSEVPKDSTHQWLDGSDCVLQAPGNTSCLLHYMPQAPSAEPPLEWPFPDLFSEPLCRGPILPLQANLTRKGGWLPTGSPSVILQDRYSG
subcellular localization of sLZIP and HDAC3 (HDAC3): localized in the nucleus together with HDAC3 | interaction with NCoR1 (immunoprecipitation) (NCoR1): NCoR1 was slightly dissociated from sLZIP
